Source: PMC11696373 (Nature Communications, 2025)

Biological target: the molecule itself
Assay: cryo-EM structure

B1: human XPR1 (natural protein)
chain: MKFAEHLSAHITPEWRKQYIQYEAFKDMLYSAQDQAPSVEVTDEDTVKRYFAKFEEKFFQTCEKELAKINTFYSEKLAEAQRRFATLQNELQSSLDAQKESTGVTTLRQRRKPVFHLSHEERVQHRNIKDLKLAFSEFYLSLILLQNYQNLNFTGFRKILKKHDKILETSRGADWRVAHVEVAPFYTCKKINQLISETEAVVTNELEDGDRQKAMKRLRVPPLGAAQPAPAWTTFRVGLFCGIFIVLNITLVLAAVFKLETDRSIWPLIRIYRGGFLLIEFLFLLGINTYGWRQAGVNHVLIFELNPRSNLSHQHLFEIAGFLGILWCLSLLACFFAPISVIPTYVYPLALYGFMVFFLINPTKTFYYKSRFWLLKLLFRVFTAPFHKVGFADFWLADQLNSLSVILMDLEYMICFYSLELKWDESKGLLPNNSEESGICHKYTYGVRAIVQCIPAWLRFIQCLRRYRDTKRAFPHLVNAGKYSTTFFMVTFAALYSTHKERGHSDTMVFFYLWIVFYIISSCYTLIWDLKMDWGLFDKNAGENTFLREEIVYPQKAYYYCAIIEDVILRFAWTIQISITSTTLLPHSGDIIATVFAPLEVFRRFVWNFFRLENEHLNNCGEFRAVRDISVAPLNADDQTLLEQMMDQDDGVRNRQKNRSWKYNQSISLRRPRLASQSKARDTKVLIEDTDDEANT
Q: For B1, which “stoichiometry N” value is on record?
A: 2
